Sequences and labels used below:
B1: P. thracensis MukE (natural protein, Photorhabdus thracensis)
chain: MSSTHIEQFMPVKLAQALANSLFPELDSQLRAGRHIGIDDLDNHAFLMDFQEQLEEFYARYNVELIRAPEGFFYLRPRSTTLIPRSVLSELDMMVGKILCYLYLSPERLANQGIFTSQELYEELISLADEGKLMKFVNQRSSGSDLDKQKLQEKVRTTLNRLRRLGMVYFLPNNNNKFTITEAVFRFGADVRSGDDPREIQLRMIRDGEAMPVEGSLSLDDSENDETPDNSAEGAGDEQP
notes: MukE, KITE subunit of MukBEF, Photorhabdus thracensis; also called KITE protein MukE; source: E. coli BL21-Gold(DE3), co-expressed with MukB and MukF (pFB403) or with MukF (pFB486); co-purified with MukB

What all share (assay): cryo-EM structure; MukB^EQ2E4F2–AcpP2 and MukB^EQ2–AcpP2 at 10 μM each, 80-bp matS DNA and MatP2; buffer H30 with 1 mM ATP, 2 mM MgCl2, 0.05% β-octyl glucoside; MatP/DNA/ATP-bound and apo particles from the same sample
Data set [1] deals with the molecule itself.
For data set [2], the target named is T1, P. thracensis MukB(E1407Q) (Photorhabdus thracensis, UniProt A0A0F7LRY2 1-1482, E1407Q).
T1 construct: MukB, SMC subunit of MukBEF, Photorhabdus thracensis, with E1407Q (slows ATP hydrolysis); Two copies in each MukBEF monomer (kappa-MukB and nu-MukB); also called MukB^EQ; kappa-MukB; source: E. coli BL21-Gold(DE3), pFB485, produced at 22°C; purified alone or with MukEF after mixing of cell pellets (Ni-NTA, hSENP1 elution, Q, Superose 6); not shown: His6-SUMO, N-terminal, cleaved
Particulars: both partners purified.

The data set “P. thracensis MukE” concerns the target B1. Particulars: both partners purified.

The source of these data is publication PMC8669397, “Cryo-EM structure of MukBEF reveals DNA loop entrapment at chromosomal unloading sites” (Molecular Cell, 2021).

As for B1, the binding result in data set [1] is listed as “binds”.

B2: P. thracensis MatP (natural protein, Photorhabdus thracensis)
chain: MKYQQLENLECGWKWAYLIRKHQEGEPITKYIENSAAHAAVDKLIKLESEPVRVLEWIEQHMNPDLFNRMKQTIRARRKRHFNAEHQHTRKKSIDLDFPVWHRLSALSQRRGNTLSETIVQLIEDAERKEKYANQMSSLKHDLEAILGKNE
notes: cloned without tag; the C-terminal tetramerization tail is not visible; also called MatP2; source: E. coli BL21-Gold(DE3), pFB469, purified (HisTrap, Q flowthrough, SP)
Take B2: the binding result (in data set [2]; with P. thracensis MukE; in data set [1]) was “binds” each time.
